Source: publication PMC3357558

Key:
[1] = target: ITK-BTK((SH3)): ITK whose SH3 domain is replaced with the SH3 domain of BTK, fluorescent protein chimera (UniProt P35991)
[2] = target: ITK-BTK((SH3)): ITK whose SH3 domain is replaced with the SH3 domain of BTK, fluorescent protein chimera (UniProt P35991); assay: co-IP; Jurkat (JTag) cells transfected with GFP-ITK constructs, stimulated or not with 5 ug/mL anti-CD3e OKT3 cross-linked with rabbit anti-mouse IgG for 1 minute at 37°C, lysed; FP-ITK immunoprecipitated with anti-GFP IgG; SLP-76 and ITK immunoblotted; association index by densitometry against the nonstimulated lane

Chain of UniProt P35991 (P35991 whole entry, stated change not applied, the tested form may be a part): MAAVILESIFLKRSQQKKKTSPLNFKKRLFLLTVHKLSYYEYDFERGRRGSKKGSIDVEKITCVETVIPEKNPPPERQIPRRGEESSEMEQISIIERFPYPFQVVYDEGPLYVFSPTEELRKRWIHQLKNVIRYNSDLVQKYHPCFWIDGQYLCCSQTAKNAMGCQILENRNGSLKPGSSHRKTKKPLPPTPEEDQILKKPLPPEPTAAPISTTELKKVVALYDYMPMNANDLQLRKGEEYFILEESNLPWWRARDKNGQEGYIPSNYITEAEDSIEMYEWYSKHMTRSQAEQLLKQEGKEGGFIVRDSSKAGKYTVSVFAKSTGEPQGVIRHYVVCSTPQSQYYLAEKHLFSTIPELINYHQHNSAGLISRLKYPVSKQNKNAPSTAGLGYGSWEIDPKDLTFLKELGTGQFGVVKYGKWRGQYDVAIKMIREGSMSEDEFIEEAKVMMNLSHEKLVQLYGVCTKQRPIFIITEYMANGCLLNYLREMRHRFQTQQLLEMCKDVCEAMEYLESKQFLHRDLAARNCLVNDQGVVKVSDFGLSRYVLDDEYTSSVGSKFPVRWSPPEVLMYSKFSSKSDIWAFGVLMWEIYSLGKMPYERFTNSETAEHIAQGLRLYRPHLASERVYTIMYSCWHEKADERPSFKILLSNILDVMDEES

TCR-induced tyrosine phosphorylation of ITK-BTK(SH3) in transfected Jurkat cells (anti-ITK IP, antiphosphotyrosine blot), reduction in signal intensity against wild type ITK [1]: 15%
reduction of the ITK-SLP-76 association against wild-type ITK [2]: 32%
B1: SLP-76 (natural protein)
chain: MALRNVPFRSEVLGWDPDSLADYFKKLNYKDCEKAVKKYHIDGARFLNLTENDIQKFPKLRVPILSKLSQEINKNEERRSIFTRKPQVPRFPEETESHEEDNGGWSSFEEDDYESPNDDQDGEDDGDYESPNEEEEAPVEDDADYEPPPSNDEEALQNSILPAKPFPNSNSMYIDRPPSGKTPQQPPVPPQRPMAALPPPPAGRNHSPLPPPQTNHEEPSRSRNHKTAKLPAPSIDRSTKPPLDRSLAPFDREPFTLGKKPPFSDKPSIPAGRSLGEHLPKIQKPPLPPTTERHERSSPLPGKKPPVPKHGWGPDRRENDEDDVHQRPLPQPALLPMSSNTFPSRSTKPSPMNPLPSSHMPGAFSESNSSFPQSASLPPYFSQGPSNRPPIRAEGRNFPLPLPNKPRPPSPAEEENSLNEEWYVSYITRPEAEAALRKINQDGTFLVRDSSKKTTTNPYVLMVLYKDKVYNIQIRYQKESQVYLLGTGLRGKEDFLSVSDIIDYFRKMPLLLIDGKNRGSRYQCTLTHAAGYP
